Positions count from the first letter of the chain named.
B1: YU100-E11 (antibody)
chain: QVQLVESGGGVVQPGRSLRLSCAASGFTFSSYGMHWVRQAPGKGLEWVAVISYDGSNKYYADSVKGRFTISRDNSKNTLYLQMNSLRAEDTAVYYCARIMGYDYGDYDVVDYWGQGTLVTVSSGSASAPKLEEGEFSEARVQSALTQPRSVSGSPGQSVTISCTGTSSDVGGYNYVSWYQQHPGKAPKLMIYDVSKRPSGVPDRFSGSKSGNTASLTISGLQAEDEADYYCCSYAGSYTWVFGGGTKLTVL
B2: YU100-F02 (antibody)
chain: EVQLVESGGGVVQPGRSLRLSCAASGFTFSSYGMHWVRQAPGKGLEWVAVISYDGSNKYYADSVKGRFTISRDNSKNTLYLQMNSLRAEDTAVYYCAKIGATDPLDYWGQGTLVTVSSGSASAPKLEEGEFSEARVQSALTQPRSVSGSPGQSVTISCTGTSSDVGGYNYVSWYQQHPGKAPKLMIYDVTKRPSGVPDRFSGSKSGNTASLTISGLQADDEADYYCCSYAGSYTWIFGGGTKLTVL
B3: YU100-G01 (antibody)
chain: B2 chain with E1Q, E6Q, G148A, G167A, I186L, T190N, G215R, D219E, I236V
B4: YU100-F01 (antibody)
chain: QVQLVQSGGGVVQPGRSLRLSCAASGFTFSSYGMHWVRQAPGKGLEWVAVISYDGSNKYYADSVKGRFTISRDNSKNTLYLQMNSLRAEDTAVYYCAKIGATDPLDYWGQGTLVTVSSGSASAPKLEEGEFSEARVQSALTQPASVSGSPGQSITISCTGTGSDVGAYDYVSWYQQHPGKAPKLMIYDVNNRPSGVSNRFSGSKSGNTASLTISGLQAEDEAEYYCSSFATSISWVFGGGTRLTVL
B5: YU100-E12 (antibody)
chain: QVQLVESGGGVVQPGRSLRLSCAASGFTFSSYGMHWVRQAPGKGLEWVAVISYDGSNKYYADSVKGRFTISRDNSKNTLYLQMNSLRAEDTAVYYCAKIGATDPLDYWGQGTLVTVSSGSASAPKLEEGEFSEARVQSALTQPASVSGSPGQSITISCTGTSSDVGGYNYVSWYQQHPGTAPKLMIYDVSNRPSGVSNRFSGSKSGNTASLTISGLQAEDEADYYCSSYTSSTTWVFGGGTKLTVL
B6: YU100-G07 (antibody)
chain: B5 chain with G167A, N169D, T180K, S190T, S227A, S231R, T233S, T234V

What follows are binders tested against T1, Mouse IL-11 (mouse, UniProt P47873 22-199, limits assumed) (assay: ELISA).
T1 construct: also called murine IL-11; recombinant murine IL-11
T1 sequence (looked up): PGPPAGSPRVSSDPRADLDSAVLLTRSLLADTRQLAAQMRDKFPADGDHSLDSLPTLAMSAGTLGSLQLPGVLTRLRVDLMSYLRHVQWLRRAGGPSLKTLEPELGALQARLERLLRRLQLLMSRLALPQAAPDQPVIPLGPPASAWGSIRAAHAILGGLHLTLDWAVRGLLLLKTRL
Description: (§1) The soluble scFv were produced by recombinant expression in E. coli, and analysed for their ability to bind to human IL-11 and murine IL-11 by ELISA. Briefly, the respective antigen was coated to wells of an ELISA plate, the cell culture supernatant containing the respective scFv was added at a 1:2 dilution, and binding was detected.

Binder | mIL11 - average signal
B1 | 0.435
B2 | 0.303
B3 | 0.31
B4 | 0.528
B5 | 0.5
B6 | 0.206

The binders below were run against T2, Human IL-11 (human, UniProt P20809 22-199) (assay: ELISA).
T2 construct: Recombinant human IL-11 (GenScript Cat. No. Z03108-1) or IL-11 secreted by human cells; the mature form is said to have 178 residues; also called recombinant human IL-11; endogenously produced IL-11
T2 sequence: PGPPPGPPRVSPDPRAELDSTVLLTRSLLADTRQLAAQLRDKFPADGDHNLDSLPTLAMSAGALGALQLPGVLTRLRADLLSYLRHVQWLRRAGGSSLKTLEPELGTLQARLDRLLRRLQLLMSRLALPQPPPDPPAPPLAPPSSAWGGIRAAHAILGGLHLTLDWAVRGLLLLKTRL
Description: as §1

Binder | hIL11 - average signal
B1 | 0.268
B2 | 0.361
B3 | 0.205
B4 | 0.464
B5 | 0.426
B6 | 0.203

The binders below were run against T2, Human IL-11 (assay: cell-based or functional assay).

Binder | MMP2 production, Experiment 1 (human atrial fibroblasts + TGFB1) [ng/mL] | MMP2 production, Experiment 2 (human atrial fibroblasts + TGFB1) [ng/mL]
B1 | 49.1 | 41.9
B2 | 51.2 | 43.5
B3 | 56.6 | 49.7
B4 | 52.8 | 39.9
B5 | 56 | 47.9
B6 | 59 | 49.7

These binders were tested against T2, Human IL-11 (assay: ELISA on coated recombinant human IL-11 (100 ng/well), scFv-Fc).
Description: The light chain shuffled anti-IL-11 antibodies were analysed to determine the EC50 for binding to human IL-11 by ELISA according to standard methods. Briefly, wells of microtiter plates were coated with recombinant human IL-11 (100 ng/well), scFv-Fc comprising the VH and VL domains of the clones were added in a dilution series and antibody binding was detected using a polyclonal antibody detection system.

Binder | EC50 [µg/mL]
B1 | 0.028
B2 | 0.018
B3 | 0.019
B4 | 0.018
B5 | 0.016
B6 | 0.018
